Laboratory results published in publication PMC2843729.

Target: mouse CNPase catalytic domain containing the C-terminal tail (construct 6-2) (mouse)
Test: SEC; HiLoad 16/60 Superdex 200, after Ni-TED purification and TEV cleavage; dimer to monomers

A stoichiometry N of 2 was found for “mouse CNPase catalytic domain containing the C-terminal tail (construct 6-2) (domain or fragment)” in this work.
